In patent USRE47150 (Bayer, dated 2018) one finds variant/HC_D62R data, which are given here for 34 molecules.

The chains are these.
T1: human tissue factor pathway inhibitor (TFPI) (human, UniProt P10646 29-304, limits assumed)
T1 construct: bought; also called hTFPI; human TFPI
T1 sequence (looked up): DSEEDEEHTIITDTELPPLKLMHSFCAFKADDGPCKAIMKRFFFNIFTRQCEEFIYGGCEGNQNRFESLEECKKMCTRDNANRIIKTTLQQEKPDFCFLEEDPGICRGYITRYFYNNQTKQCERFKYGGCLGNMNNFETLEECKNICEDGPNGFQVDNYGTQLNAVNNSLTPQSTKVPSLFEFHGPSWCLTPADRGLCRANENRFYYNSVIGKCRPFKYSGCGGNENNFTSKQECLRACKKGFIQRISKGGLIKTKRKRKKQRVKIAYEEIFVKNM

T2: mouse tissue factor pathway inhibitor (TFPI) (mouse, UniProt O54819 29-289, limits assumed)
T2 construct: bought; also called mTFPI; murine TFPI
T2 sequence (looked up): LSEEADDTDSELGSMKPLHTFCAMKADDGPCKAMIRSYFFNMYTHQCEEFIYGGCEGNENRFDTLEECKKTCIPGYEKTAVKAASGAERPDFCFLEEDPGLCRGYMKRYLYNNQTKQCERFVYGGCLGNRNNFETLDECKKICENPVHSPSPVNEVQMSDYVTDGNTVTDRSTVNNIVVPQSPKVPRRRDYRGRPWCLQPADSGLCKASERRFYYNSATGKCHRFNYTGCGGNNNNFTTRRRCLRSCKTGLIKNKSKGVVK

B1: 4B7 HC N32D+D62R+H107M+Y112D/LC D33F+N35T+Y37F (Fab, V domains shown)
VH: QVQLQQSGPGLVKPSQTLSLTCAISGDSVSSDSAAWSWIRQSPGRGLEWLGIIYKRSKWYNRYAVSVKSRITINPDTSKNQFSLQLNSVTPEDTAVYYCARWHSDKMWGFDDWGQGTLVTVSS
VL: DIVMTQSPLSLPVTPGEPASISCRSSQSLVFSFGTTFLNWYLQKPGQSPQLLIYKGSNRASGVPDRFSGSGSGTDFTLKISRVEAEDVGVYYCQQYDSYPLTFGQGTKVEIKR
B2: 4B7 HC N32D+D62R+Y112D/LC S32R+D33F+N35I+D97T+S98H (Fab, V domains shown)
VH: B1 VH with M107H
VL: B1 VL with S32R, T35I, F37Y, D97T, S98H
B3: 4B7 HC N32D+D62R+H107M+Y112D/LC F31M+D33F+N35I (Fab, V domains shown)
VH: B1 VH
VL: B1 VL with F31M, T35I, F37Y
B4: 4B7 HC N32D+D62R+Y112D/LC D33F+N35I+D97T (Fab, V domains shown)
VH: B1 VH with M107H
VL: B1 VL with T35I, F37Y, D97T
B5: 4B7 HC N32D+D62R+Y112D/LC F31Y+S32R+D33F+N35I+D97T (Fab, V domains shown)
VH: B1 VH with M107H
VL: B1 VL with F31Y, S32R, T35I, F37Y, D97T
B6: 4B7 HC N32D+D62R+H107M+Y112D/LC S32R+N35T+D97T (Fab, V domains shown)
VH: B1 VH
VL: B1 VL with S32R, F33D, F37Y, D97T
B7: 4B7 HC N32D+D62R+H107M+Y112D/LC S32R+D33F+N35T (Fab, V domains shown)
VH: B1 VH
VL: B1 VL with S32R, F37Y
B8: 4B7 HC N32D+D62R+H107M+Y112D/LC D33R (Fab, V domains shown)
VH: B1 VH
VL: B1 VL with F33R, T35N, F37Y
B9: 4B7 HC N32D+D62R+H107M+Y112D/LC F31M+D33F+N35T (Fab, V domains shown)
VH: B1 VH
VL: B1 VL with F31M, F37Y
B10: 4B7 HC N32D+D62R+H107M+Y112D/LC D33R+N35T (Fab, V domains shown)
VH: B1 VH
VL: B1 VL with F33R, F37Y
B11: 4B7 HC N32D+D62R+H107M+Y112D/LC F31M+S32L+D33R+N35I+D97T (Fab, V domains shown)
VH: B1 VH
VL: B1 VL with F31M, S32L, F33R, T35I, F37Y, D97T
B12: 4B7 HC N32D+D62R+Y112D/LC F31I+D33F+N35I+D97T (Fab, V domains shown)
VH: B1 VH with M107H
VL: B1 VL with F31I, T35I, F37Y, D97T
B13: 4B7 HC N32D+D62R+H107M+Y112D/LC F31I+D33R (Fab, V domains shown)
VH: B1 VH
VL: B1 VL with F31I, F33R, T35N, F37Y
B14: 4B7 HC N32D+D62R+H107M+Y112D/LC F31M+S32R+D33R (Fab, V domains shown)
VH: B1 VH
VL: B1 VL with F31M, S32R, F33R, T35N, F37Y
B15: 4B7 HC N32D+D62R+H107M+Y112D/LC F31I+S32R+D33F+N35I+D97T (Fab, V domains shown)
VH: B1 VH
VL: B1 VL with F31I, S32R, T35I, F37Y, D97T
B16: 4B7 HC N32D+D62R+H107M+Y112D/LC F31I+S32R+N35I+D97T (Fab, V domains shown)
VH: B1 VH
VL: B1 VL with F31I, S32R, F33D, T35I, F37Y, D97T
B17: 4B7 HC N32D+D62R+H107M+Y112D/LC F31M+S32R+D33R+N35T (Fab, V domains shown)
VH: B1 VH
VL: B1 VL with F31M, S32R, F33R, F37Y
B18: 4B7 HC N32D+D62R+Y112D/LC S32R+D33F+N35I+A60D+D97T (Fab, V domains shown)
VH: B1 VH with M107H
VL: B1 VL with S32R, T35I, F37Y, A60D, D97T
B19: 4B7 HC N32D+D62R+H107M+Y112D/LC F31M+D33R+N35I (Fab, V domains shown)
VH: B1 VH
VL: B1 VL with F31M, F33R, T35I, F37Y
B20: 4B7 HC N32D+D62R+H107M+Y112D/LC S32R+N35T (Fab, V domains shown)
VH: B1 VH
VL: B1 VL with S32R, F33D, F37Y
B21: 4B7 HC N32D+D62R+Y112D/LC D33R+N35I (Fab, V domains shown)
VH: B1 VH with M107H
VL: B1 VL with F33R, T35I, F37Y
B22: 4B7 HC N32D+D62R+H107M/LC S32R+D33R+N35I (Fab, V domains shown)
VH: B1 VH with D112Y
VL: B1 VL with S32R, F33R, T35I, F37Y
B23: 4B7 HC N32D+D62R+H107M+Y112D/LC D33R+N35I+D97T (Fab, V domains shown)
VH: B1 VH
VL: B1 VL with F33R, T35I, F37Y, D97T
B24: 4B7 HC N32D+D62R+Y112D/LC M4L+S32R+D33F+N35I+D97T (Fab, V domains shown)
VH: B1 VH with M107H
VL: B1 VL with M4L, S32R, T35I, F37Y, D97T
B25: 4B7 HC N32D+D62R+H107M+Y112D/LC F31M+S32R+D33F+N35I (Fab, V domains shown)
VH: B1 VH
VL: B1 VL with F31M, S32R, T35I, F37Y
B26: 4B7 HC N32D+D62R+H107M+Y112D/LC F31M+S32R+D33R+N35I+D97T (Fab, V domains shown)
VH: B1 VH
VL: B1 VL with F31M, S32R, F33R, T35I, F37Y, D97T
B27: 4B7 HC N32D+D62R+H107M+Y112D/LC F31M+S32R+D33F+D97T (Fab, V domains shown)
VH: B1 VH
VL: B1 VL with F31M, S32R, T35N, F37Y, D97T
B28: 4B7 HC N32D+D62R+H107M+Y112D/LC F31I+D33R+N35I (Fab, V domains shown)
VH: B1 VH
VL: B1 VL with F31I, F33R, T35I, F37Y
B29: 4B7 HC N32D+D62R+H107M+Y112D/LC F31I+S32R+D33F+N35T (Fab, V domains shown)
VH: B1 VH
VL: B1 VL with F31I, S32R, F37Y
B30: 4B7 HC N32D+D62R+Y112D/LC F31M+S32R+D33R+N35I (Fab, V domains shown)
VH: B1 VH with M107H
VL: B1 VL with F31M, S32R, F33R, T35I, F37Y
B31: 4B7 HC N32D+D62R+H107M+Y112D/LC F31I+N35I (Fab, V domains shown)
VH: B1 VH
VL: B1 VL with F31I, F33D, T35I, F37Y
B32: 4B7 HC N32D+D62R+H107M+Y112D/LC F31M+D33R (Fab, V domains shown)
VH: B1 VH
VL: B1 VL with F31M, F33R, T35N, F37Y
B33: 4B7 HC N32D+D62R+Y112D/LC F31H+S32R+D33F+N35I+D97T (Fab, V domains shown)
VH: B1 VH with M107H
VL: B1 VL with F31H, S32R, T35I, F37Y, D97T
B34: 4B7 HC N32D+D62R+Y112D/LC M4I+S32R+D33F+N35I+D97T (Fab, V domains shown)
VH: B1 VH with M107H
VL: B1 VL with M4I, S32R, T35I, F37Y, D97T

Residue numbers refer to the chain shown, from its start. Numbers in names are those of the source.

For the first experiment, the target named is T1, human tissue factor pathway inhibitor …. As to the kind of experiment: competitive ELISA. (In general: ELISA stands for enzyme-linked immunosorbent assay.)
Molecule B1 displayed a variant/HC_D62R of 35.7 ratio.
As for B2, the variant/HC_D62R was 17.9 ratio.
With B3, the variant/HC_D62R was determined as 28.4 ratio.
For B4, the variant/HC_D62R was 25.5 ratio.
On the same count and under the same terms, the result for B5 reads 27.9 ratio.
B6 displayed a variant/HC_D62R of 27.7 ratio.
On to B7, for which the variant/HC_D62R amounted to 29.2 ratio.
On the same count and under the same terms, the result for B8 reads 25.3 ratio; that for B9, 29.9 ratio.
The molecule B10 gave a variant/HC_D62R of 28.2 ratio.
The molecule B11 registered a variant/HC_D62R of 32.2 ratio.
Molecule B12 showed a variant/HC_D62R of 23.3 ratio.
For B13, the variant/HC_D62R was determined as 30.1 ratio.
The molecule B14 registered a variant/HC_D62R of 18.6 ratio.
In the case of B15, the variant/HC_D62R worked out at 28.7 ratio.
With B16, the variant/HC_D62R is 18.2 ratio.
Take B17: the variant/HC_D62R is 17 ratio.
B18 came in with a variant/HC_D62R of 19.1 ratio.
On the same count and under the same terms, the result for B19 reads 21.3 ratio; that for B20, 25.3 ratio; that for B21, 22.9 ratio.
Still for that read-out and setting: the result for B22 reads 12.9 ratio.
Turning to B23, the variant/HC_D62R was 29.1 ratio.
Still for that read-out and setting: the result for B24 reads 21.3 ratio; that for B25, 27 ratio.
The same measure, in the same setting: the result for B26 reads 16.9 ratio.
Still for that read-out and setting: the result for B27 reads 21.9 ratio.
In turn, B28 registered a variant/HC_D62R of 29.8 ratio.
Molecule B29 gave a variant/HC_D62R of 29.5 ratio.
Still for that read-out and setting: the result for B30 reads 15.8 ratio; that for B31, 28.8 ratio; that for B32, 26.9 ratio.
B33 had a variant/HC_D62R of 22.1 ratio.
B34 returned a variant/HC_D62R of 19.3 ratio.

Another experiment addresses T2, mouse tissue factor pathway inhibitor …. Briefly: competitive ELISA.
For the molecule B1, the variant/HC_D62R stood at 57.5 ratio.
B2 registered a variant/HC_D62R of 7.1 ratio.
For the molecule B3, the variant/HC_D62R was 46.8 ratio.
For B4, the variant/HC_D62R was 15.9 ratio.
Regarding B5, the variant/HC_D62R is 39.7 ratio.
On to B6, for which the variant/HC_D62R is 15.8 ratio.
Take B7: the variant/HC_D62R came out at 44.1 ratio.
In turn, B8 yielded a variant/HC_D62R of 20.3 ratio.
The molecule B9 returned a variant/HC_D62R of 34.3 ratio.
B10 registered a variant/HC_D62R of 29.3 ratio.
Turning to B11, the variant/HC_D62R was found to be 26.7 ratio.
Still for that read-out and setting: the result for B12 reads 11.9 ratio.
B13 registered a variant/HC_D62R of 27.9 ratio.
B14: the variant/HC_D62R was found to be 13.9 ratio.
B15 registered a variant/HC_D62R of 20.6 ratio.
On to B16, for which the variant/HC_D62R was determined as 8.7 ratio.
B17 gave a variant/HC_D62R of 18.7 ratio.
B18: the variant/HC_D62R was determined as 14.3 ratio.
In the case of B19, the variant/HC_D62R was found to be 23 ratio.
As for B20, the variant/HC_D62R was 29.3 ratio.
The molecule B21 registered a variant/HC_D62R of 19.5 ratio.
With B22, the variant/HC_D62R was determined as 16.1 ratio.
Take B23: the variant/HC_D62R was found to be 28.1 ratio.
B24 came in with a variant/HC_D62R of 23.9 ratio.
As for B25, the variant/HC_D62R turned out to be 32.3 ratio.
Regarding B26, the variant/HC_D62R turned out to be 9.6 ratio.
Same read-out and setting: the result for B27 reads 16.5 ratio.
Turning to B28, the variant/HC_D62R amounted to 43 ratio.
As for B29, the variant/HC_D62R is 19.7 ratio.
Consider B30, for which the variant/HC_D62R worked out at 11.2 ratio.
In the case of B31, the variant/HC_D62R came to 30 ratio.
In turn, B32 gave a variant/HC_D62R of 24.6 ratio.
On to B33, for which the variant/HC_D62R was 15.2 ratio.
In turn, B34 returned a variant/HC_D62R of 12 ratio.
